This is an account of results in PMC11211324 (Cell Discovery, 2024).

The term Kd denotes the equilibrium constant for the complex coming apart.

Assay [1] concerns the target T1, purified KRAS (Homo sapiens (assumed), isoform 2B …, UniProt P01116-2, biotin (chemically labelled with EZ-link-Sulfo-NHS-biotin) in the BLI assay only).
Assay [2] addresses T1, purified KRAS. Briefly: BLI; biotinylated KRAS immobilised on streptavidin biosensors, KDCs (TKD, TKDm) in solution in a 2-fold dilution series; Octet Red96, 30 °C, PBST (1x PBS, 0.1% Tween 20); 100 s association, 200 s dissociation; 1:1 model, global fit. Conditions: both partners purified. (BLI is a label-free optical method that tracks binding on a fibre tip over time.)
For another assay, the target named is T2, purified NRAS (Homo sapiens (assumed), UniProt P01111).
T2 construct: NRAS, purified, bought; Catalogue numbers are printed in the order HRAS/NRAS; source: bought: MedChemExpress
Put plainly: BLI; TKD with purified HRAS or NRAS; Octet Red96, 30 °C, PBST; which partner was on the biosensor is not clearly told. Conditions: both partners purified.

For the next assay, the target named is T3, purified HRAS (Homo sapiens (assumed), UniProt P01112).
T3 construct: HRAS, purified, bought; Catalogue numbers are printed in the order HRAS/NRAS; source: bought: MedChemExpress
The assay is described as above. Conditions: both partners purified.

T1 sequence (P01116 whole entry, canonical isoform): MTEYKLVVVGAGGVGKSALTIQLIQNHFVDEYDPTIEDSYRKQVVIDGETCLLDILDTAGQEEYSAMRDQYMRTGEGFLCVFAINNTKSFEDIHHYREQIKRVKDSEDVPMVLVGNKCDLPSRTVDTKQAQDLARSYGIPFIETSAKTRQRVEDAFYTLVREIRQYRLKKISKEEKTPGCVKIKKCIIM
T2 sequence (P01111 whole entry): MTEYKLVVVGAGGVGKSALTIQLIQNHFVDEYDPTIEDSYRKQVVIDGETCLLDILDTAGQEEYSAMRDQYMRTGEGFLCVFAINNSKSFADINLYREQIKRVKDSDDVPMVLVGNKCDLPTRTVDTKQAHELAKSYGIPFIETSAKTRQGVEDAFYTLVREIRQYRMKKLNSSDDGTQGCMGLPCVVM
T3 sequence (P01112 whole entry): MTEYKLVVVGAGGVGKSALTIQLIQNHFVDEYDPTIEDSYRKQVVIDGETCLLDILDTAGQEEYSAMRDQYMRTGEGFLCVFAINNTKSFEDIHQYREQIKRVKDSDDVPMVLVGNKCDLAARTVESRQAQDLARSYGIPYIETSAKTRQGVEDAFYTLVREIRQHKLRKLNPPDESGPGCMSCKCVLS

B1: 3 (VHH)
VHH: DVQLQESGGGLVQPGGSLRLNCAASGFVFSDYAMSWVRQAPGKGLEWVSAIYGGGYNPIYTDSVKGRFTISRDNAKNTLYLQIRTLKPEDTGVYYCAKEQTFGTFLNDTYYSPSYYDWGQGTQVTVSS
For the molecule B1, in the assay with purified KRAS [1], the binding result was “binds”.

B2: 5 (VHH)
VHH: DVQLQESGGGLVQPGGSLRLNCAASGFVFSDYAMSWVRQAPGKGLEWVSAIYGGGYNPIYADSVKGRFTISRDNAKNTLYLQIRTLKPEDTGVYYCAKEQTFGTFLNDTYYSPSYYDWGQGTQVTVSS
On to B2, for which, in the assay with purified KRAS [1], the binding result is “binds”.

B3: 6 (VHH)
VHH: DVQLQESGGGLVEPGGSLRLSCAASGSIFGLDVMGWYRQAPGKQRELVAIITRGGTANYADSGKGRFTISSDYAKKTVSLQMGSLIPEDTAVYYCSALVLGTNYWGQGTQVTVSS
Regarding B3, the binding result with purified KRAS [1] was “binds”.

B4: 4 (VHH)
VHH: DVQLQESGGGLVQPGGSLRLSCAASGFTFGNTGMSWVRQAPGKGLEWVSGISSGGAFSFYADSVKGRFTGSDNSAKNTVYLQMNSLQPEDTGVYYCAAGPRVALLTTPWTNPQSYHYWGQGTQVTVSS
Take B4: the binding result with purified KRAS [1] is recorded as “binds”.

B5: 2 (VHH)
VHH: DVQLQESGGGLVQAGGSLRLSCVAPARTVSTYPTGWFRRAPGKEREFVARINFSGGITNYADSVKGRFTISRNNTKNTVYLQMNSLKPEDTAVYYCGGGSTTWADGIPINFDYWGQGTQVTVSS
As for B5, in the assay with purified KRAS [1], the binding result is listed as “binds”.

B6: tumor-targeting KRAS degrader (TKD) (VHH)
VHH: DVQLQESGGGLVQAGGSLRLSCVASGRTFSTYPTGWFRQAPGKEREFVARINLSGGITNYADSVKGRFTISRDNAKNTVYLQMNSLKPEDTAVYYCGGGSTTWAGGIPTNFDYWGQGTQVTVSS
notes: cancer cell-penetrating peptide BR2 (derived from buforin IIb); KRAS nanobody from an alpaca immunised with KRAS (1-169 aa); Fusion of BR2, KRAS nanobody and CTM; also called KDC 1; KRAS degrader candidate 1; source: for co-IP the purified protein was added to living cells
As for B6, binding with purified KRAS [2] was characterised by a dissociation constant (Kd) of 6.57 nM. Also, the binding result in the assay with purified NRAS and in the assay with purified HRAS was “no binding” throughout.

B7: TKDm (negative control of TKD with mutant CTM peptide) (VHH)
VHH: DVQLQESGGGLVQAGGSLRLSCVASGRTFSTYPTGWFRQAPGKEREFVARINLSGGITNYADSVKGRFTISRDNAKNTVYLQMNSLKPEDTAVYYCGGGSTTWAGGIPTNFDYWGQGTQVTVSS
notes: cancer cell-penetrating peptide BR2 (derived from buforin IIb); KRAS nanobody, same as in TKD; also called TKDm-His; source: for co-IP the purified protein was added to living cells
For the molecule B7, the dissociation constant Kd with purified KRAS [2] is 6.6 nM.
